In patent publication US20130177981A1:

T1: Mcl-1, Q07820
T1 chain: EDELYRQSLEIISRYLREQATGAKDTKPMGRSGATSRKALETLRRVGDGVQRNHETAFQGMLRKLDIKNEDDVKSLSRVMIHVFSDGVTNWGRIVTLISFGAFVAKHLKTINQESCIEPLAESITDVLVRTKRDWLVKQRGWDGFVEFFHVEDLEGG


Assays:
[1] = target: T1, Mcl-1, Q07820; assay: competition FP; displacement of the labeled Bak BH3 peptide
[2] = target: Bcl-xL, Q07817; assay: direct-binding FP with the BODIPY-labeled analogue
[3] = target: T1, Mcl-1, Q07820; assay: direct-binding FP with the BODIPY-labeled analogue

Sequence of Bcl-xL, Q07817 (Q07817 1-209): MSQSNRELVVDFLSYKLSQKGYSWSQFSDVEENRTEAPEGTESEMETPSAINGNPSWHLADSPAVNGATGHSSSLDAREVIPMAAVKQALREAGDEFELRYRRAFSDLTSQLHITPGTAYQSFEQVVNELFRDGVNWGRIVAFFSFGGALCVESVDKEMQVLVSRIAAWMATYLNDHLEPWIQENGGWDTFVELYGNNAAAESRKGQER

Row | Ki [1] | Kd [2] | Kd [3] | Binder
1 | < 10 nM | – | – | EEQWAREIGAQLRRMADDLNAQYERR (peptide, UniProt Q9BXH1 130-155, looked up, modifications not checked) [Puma BH3 α-peptide 1′, Q9BXH1 130-155]
2 | – | 2.2 nM | 110 nM | EEQWAREIGAQLRRMADDLNAQYERR (peptide, UniProt Q9BXH1 130-155, looked up, modifications not checked) [BODIPY-TMR-labeled analog of Puma BH3 α/β-peptide 4′, Q9BXH1 130-155]
3 | – | – | < 2 nM | EEQWAREIGAQLRRMADDLNAQYERR (peptide, UniProt Q9BXH1 130-155, looked up, modifications not checked) [BODIPY-TMR-labeled analog of Puma BH3 α-peptide 1′, Q9BXH1 130-155]
